B1: Mothers against decapentaplegic homolog 4 (Homo sapiens), Q13485 (parent)
chain: MDNMSITNTPTSNDACLSIVHSLMCHRQGGESETFAKRAIESLVKKLKEKKDELDSLITAITTNGAHPSKCVTIQRTLDGRLQVAGRKGFPHVIYARLWRWPDLHKNELKHVKYCQYAFDLKCDSVCVNPYHYERVVSPGIDLSGLTLQSNAPSSMMVKDEYVHDFEGQPSLSTEGHSIQTIQHPPSNRASTETYSTPALLAPSESNATSTANFPNIPVASTSQPASILGGSHSEGLLQIASGPQPGQQQNGFTGQPATYHHNSTTTWTGSRTAPYTPNLPHHQNGHLQHHPPMPPHPGHYWPVHNELAFQPPISNHPAPEYWCSIAYFEMDVQVGETFKVPSSCPIVTVDGYVDPSGGDRFCLGQLSNVHRTEAIERARLHIGKGVQLECKGEGDVWVRCLSDHAVFVQSYYLDREAGRAPGDAVHKIYPSAYIKVFDLRQCHRQMQQQAATAQAAAAAQAAAVAGNIPGPGSVGGIAPAISLSAAAGIGVDDLRRLCILRMSFVKGWGPDYPRQSIKETPCWIEIHLHRALQLLDEVLHTMPIADPQPLD

Variants of: B1
Conditions: with runx1_human RUNX1, Q01196

G386D was tested. Which “effect of a mutation on the interaction” value did it give?
Its value is “with no effect”.

Variants of: B1
Conditions: with ruvb1_human RUVBL1, Q9Y265

How did the “effect of a mutation on the interaction” value turn out when G386D was run?
Its value is “with no effect”.

Variants of: B1
Conditions: with sdha_human SDHA

Which “effect of a mutation on the interaction” value does the source give for G386D here?
Its value is “with no effect”.

Variants of: B1
Conditions: with setb1_human SETDB1, Q15047

G386D was tested. Which “effect of a mutation on the interaction” value did it give?
The value was “with no effect”.

Variants of: B1
Conditions: with skp2_human SKP2, Q13309

G386D was tested. Which “effect of a mutation on the interaction” value did it give?
The value was “with no effect”.

Variants of: B1
Conditions: with smad1_human SMAD1, Q15797

With G386D as the variant, how does the “effect of a mutation on the interaction” value read?
The value was “with no effect”.

Variants of: B1
Conditions: with smad2_human SMAD2, Q15796

With G386D as the variant, how does the “effect of a mutation on the interaction” value read?
Its value is “with no effect”.

Variants of: B1
Conditions: with smad3_human SMAD3, P84022

G386D was tested. Which “effect of a mutation on the interaction” value did it give?
The value was “with no effect”.

Variants of: B1
Conditions: with smca4_human SMARCA4, P51532

Which “effect of a mutation on the interaction” value does the source give for G386D here?
The value was “with no effect”.

Variants of: B1
Conditions: with snf5_human SMARCB1, Q12824

For G386D, which “effect of a mutation on the interaction” value is on record?
The value was “with no effect”.

Variants of: B1
Conditions: with smo_human SMO

G386D was tested. Which “effect of a mutation on the interaction” value did it give?
The value was “with no effect”.

Variants of: B1
Conditions: with socs1_human SOCS1, O15524
socs1_human SOCS1, O15524, sequence (O15524 whole entry): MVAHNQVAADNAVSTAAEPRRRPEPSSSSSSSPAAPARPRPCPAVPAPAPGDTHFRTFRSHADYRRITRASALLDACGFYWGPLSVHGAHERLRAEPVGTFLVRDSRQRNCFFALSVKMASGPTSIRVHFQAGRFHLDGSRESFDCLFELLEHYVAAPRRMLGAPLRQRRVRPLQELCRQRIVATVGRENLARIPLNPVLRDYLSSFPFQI

With G386D as the variant, how does the “effect of a mutation on the interaction” value read?
The value was “with no effect”.

Variants of: B1
Conditions: with sox10_human SOX10, P56693

G386D was tested. Which “effect of a mutation on the interaction” value did it give?
Its value is “with no effect”.

Variants of: B1
Conditions: with sox2_human SOX2, P48431

With G386D as the variant, how does the “effect of a mutation on the interaction” value read?
Its value is “with no effect”.

Variants of: B1
Conditions: with sox3_human SOX3, P41225
sox3_human SOX3, P41225, sequence (P41225 whole entry): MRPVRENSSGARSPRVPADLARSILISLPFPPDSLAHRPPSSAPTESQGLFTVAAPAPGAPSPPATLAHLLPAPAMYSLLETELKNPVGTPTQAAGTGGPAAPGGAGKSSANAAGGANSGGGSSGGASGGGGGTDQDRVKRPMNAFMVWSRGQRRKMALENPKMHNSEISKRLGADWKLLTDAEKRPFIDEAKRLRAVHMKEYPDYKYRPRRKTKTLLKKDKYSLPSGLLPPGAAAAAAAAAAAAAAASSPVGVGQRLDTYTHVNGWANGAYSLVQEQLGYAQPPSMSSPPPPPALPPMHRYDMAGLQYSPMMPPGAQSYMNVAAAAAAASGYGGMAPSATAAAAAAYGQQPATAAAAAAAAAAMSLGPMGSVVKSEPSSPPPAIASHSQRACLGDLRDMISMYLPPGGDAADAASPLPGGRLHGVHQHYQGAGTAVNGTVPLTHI

Which “effect of a mutation on the interaction” value does the source give for G386D here?
Its value is “with no effect”.

Variants of: B1
Conditions: with sox4_human SOX4, Q06945
sox4_human SOX4, Q06945, sequence (Q06945 whole entry): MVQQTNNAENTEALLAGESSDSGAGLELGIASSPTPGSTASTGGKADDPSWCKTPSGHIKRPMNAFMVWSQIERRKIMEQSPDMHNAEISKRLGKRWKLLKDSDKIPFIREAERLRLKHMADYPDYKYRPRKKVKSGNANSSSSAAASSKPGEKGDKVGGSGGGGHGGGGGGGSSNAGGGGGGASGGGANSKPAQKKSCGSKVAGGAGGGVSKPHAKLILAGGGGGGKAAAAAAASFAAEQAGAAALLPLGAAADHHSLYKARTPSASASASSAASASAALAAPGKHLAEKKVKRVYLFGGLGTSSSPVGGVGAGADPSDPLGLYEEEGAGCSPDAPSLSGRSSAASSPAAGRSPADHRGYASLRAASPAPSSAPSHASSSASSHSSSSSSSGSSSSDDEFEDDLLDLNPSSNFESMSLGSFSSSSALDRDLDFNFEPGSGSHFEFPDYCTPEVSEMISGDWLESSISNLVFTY

With G386D as the variant, how does the “effect of a mutation on the interaction” value read?
Its value is “with no effect”.

Variants of: B1
Conditions: with sox9_human SOX9, P48436

For G386D, which “effect of a mutation on the interaction” value is on record?
The value was “with no effect”.

Variants of: B1
Conditions: with spop_human SPOP

G386D was tested. Which “effect of a mutation on the interaction” value did it give?
Its value is “with no effect”.

Variants of: B1
Conditions: with src_human SRC

How did the “effect of a mutation on the interaction” value turn out when G386D was run?
Its value is “with no effect”.

Variants of: B1
Conditions: with stat3_human STAT3, P40763

With G386D as the variant, how does the “effect of a mutation on the interaction” value read?
The value was “with no effect”.

Variants of: B1
Conditions: with stk38_human STK38, Q15208

Which “effect of a mutation on the interaction” value does the source give for G386D here?
The value was “with no effect”.

Variants of: B1
Conditions: with ksyk_human SYK

How did the “effect of a mutation on the interaction” value turn out when G386D was run?
The value was “with no effect”.

Variants of: B1
Conditions: with eloc_human ELOC

For G386D, which “effect of a mutation on the interaction” value is on record?
Its value is “with no effect”.

Variants of: B1
Conditions: with tfe2_human TCF3, P15923
tfe2_human TCF3, P15923, sequence (P15923 whole entry): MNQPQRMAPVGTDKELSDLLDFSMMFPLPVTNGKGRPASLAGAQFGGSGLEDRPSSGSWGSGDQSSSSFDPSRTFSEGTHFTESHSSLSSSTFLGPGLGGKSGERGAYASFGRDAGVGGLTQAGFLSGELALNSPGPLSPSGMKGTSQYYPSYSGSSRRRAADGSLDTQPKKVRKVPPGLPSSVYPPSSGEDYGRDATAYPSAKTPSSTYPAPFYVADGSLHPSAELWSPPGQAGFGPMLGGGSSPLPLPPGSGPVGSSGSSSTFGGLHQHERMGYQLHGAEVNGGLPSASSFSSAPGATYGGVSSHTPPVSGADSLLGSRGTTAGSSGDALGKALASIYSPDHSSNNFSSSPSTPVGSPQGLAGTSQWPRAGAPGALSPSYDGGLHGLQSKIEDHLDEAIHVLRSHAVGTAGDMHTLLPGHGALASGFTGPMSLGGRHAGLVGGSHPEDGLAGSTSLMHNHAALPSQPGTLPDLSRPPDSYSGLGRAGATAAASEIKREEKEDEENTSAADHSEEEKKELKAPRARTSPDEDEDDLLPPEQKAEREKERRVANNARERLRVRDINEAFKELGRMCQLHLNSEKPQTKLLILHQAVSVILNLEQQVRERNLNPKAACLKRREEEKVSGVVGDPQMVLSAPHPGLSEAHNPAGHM

Which “effect of a mutation on the interaction” value does the source give for G386D here?
Its value is “with no effect”.

Variants of: B1
Conditions: with tead1_human TEAD1, P28347

How did the “effect of a mutation on the interaction” value turn out when G386D was run?
Its value is “with no effect”.

Variants of: B1
Conditions: with tead2_human TEAD2, Q15562

Which “effect of a mutation on the interaction” value does the source give for G386D here?
Its value is “with no effect”.

Variants of: B1
Conditions: with tead3_human TEAD3, Q99594

Which “effect of a mutation on the interaction” value does the source give for G386D here?
Its value is “with no effect”.

Variants of: B1
Conditions: with tet2_human TET2, Q6N021

How did the “effect of a mutation on the interaction” value turn out when G386D was run?
Its value is “with no effect”.

Variants of: B1
Conditions: with tgfr2_human TGFBR2, P37173
tgfr2_human TGFBR2, P37173, sequence (P37173 whole entry): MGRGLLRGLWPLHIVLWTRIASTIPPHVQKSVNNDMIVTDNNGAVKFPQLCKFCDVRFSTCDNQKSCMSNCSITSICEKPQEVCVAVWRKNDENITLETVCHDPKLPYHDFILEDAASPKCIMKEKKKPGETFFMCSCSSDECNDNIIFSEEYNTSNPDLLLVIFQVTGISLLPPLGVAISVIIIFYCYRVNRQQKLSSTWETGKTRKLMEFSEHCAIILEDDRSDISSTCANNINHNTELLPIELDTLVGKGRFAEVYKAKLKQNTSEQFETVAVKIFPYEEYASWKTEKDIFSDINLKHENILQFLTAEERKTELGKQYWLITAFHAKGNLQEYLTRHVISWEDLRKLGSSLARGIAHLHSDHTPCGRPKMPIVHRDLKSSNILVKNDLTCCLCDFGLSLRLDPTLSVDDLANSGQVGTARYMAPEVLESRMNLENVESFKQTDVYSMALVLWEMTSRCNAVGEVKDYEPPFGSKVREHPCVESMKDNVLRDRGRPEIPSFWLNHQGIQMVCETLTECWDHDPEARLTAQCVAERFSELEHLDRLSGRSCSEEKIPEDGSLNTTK

How did the “effect of a mutation on the interaction” value turn out when G386D was run?
Its value is “with no effect”.

Variants of: B1
Conditions: with tnr14_human TNFRSF14, Q92956
tnr14_human TNFRSF14, Q92956, sequence (Q92956 whole entry): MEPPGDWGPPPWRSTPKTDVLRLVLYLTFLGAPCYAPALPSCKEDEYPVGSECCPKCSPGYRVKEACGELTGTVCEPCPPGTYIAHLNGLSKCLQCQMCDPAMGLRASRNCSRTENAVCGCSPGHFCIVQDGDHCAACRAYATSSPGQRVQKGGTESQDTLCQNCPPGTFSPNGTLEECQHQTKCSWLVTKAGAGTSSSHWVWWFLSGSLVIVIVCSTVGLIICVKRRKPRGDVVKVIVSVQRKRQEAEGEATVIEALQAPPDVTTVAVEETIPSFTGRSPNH

With G386D as the variant, how does the “effect of a mutation on the interaction” value read?
Its value is “with no effect”.

Variants of: B1
Conditions: with tpx2_human TPX2, Q9ULW0

G386D was tested. Which “effect of a mutation on the interaction” value did it give?
Its value is “with no effect”.

Variants of: B1
Conditions: with trrap_human TRRAP

G386D was tested. Which “effect of a mutation on the interaction” value did it give?
Its value is “with no effect”.

Variants of: B1
Conditions: with tsc2_human TSC2, P49815
tsc2_human TSC2, P49815, sequence (P49815 whole entry): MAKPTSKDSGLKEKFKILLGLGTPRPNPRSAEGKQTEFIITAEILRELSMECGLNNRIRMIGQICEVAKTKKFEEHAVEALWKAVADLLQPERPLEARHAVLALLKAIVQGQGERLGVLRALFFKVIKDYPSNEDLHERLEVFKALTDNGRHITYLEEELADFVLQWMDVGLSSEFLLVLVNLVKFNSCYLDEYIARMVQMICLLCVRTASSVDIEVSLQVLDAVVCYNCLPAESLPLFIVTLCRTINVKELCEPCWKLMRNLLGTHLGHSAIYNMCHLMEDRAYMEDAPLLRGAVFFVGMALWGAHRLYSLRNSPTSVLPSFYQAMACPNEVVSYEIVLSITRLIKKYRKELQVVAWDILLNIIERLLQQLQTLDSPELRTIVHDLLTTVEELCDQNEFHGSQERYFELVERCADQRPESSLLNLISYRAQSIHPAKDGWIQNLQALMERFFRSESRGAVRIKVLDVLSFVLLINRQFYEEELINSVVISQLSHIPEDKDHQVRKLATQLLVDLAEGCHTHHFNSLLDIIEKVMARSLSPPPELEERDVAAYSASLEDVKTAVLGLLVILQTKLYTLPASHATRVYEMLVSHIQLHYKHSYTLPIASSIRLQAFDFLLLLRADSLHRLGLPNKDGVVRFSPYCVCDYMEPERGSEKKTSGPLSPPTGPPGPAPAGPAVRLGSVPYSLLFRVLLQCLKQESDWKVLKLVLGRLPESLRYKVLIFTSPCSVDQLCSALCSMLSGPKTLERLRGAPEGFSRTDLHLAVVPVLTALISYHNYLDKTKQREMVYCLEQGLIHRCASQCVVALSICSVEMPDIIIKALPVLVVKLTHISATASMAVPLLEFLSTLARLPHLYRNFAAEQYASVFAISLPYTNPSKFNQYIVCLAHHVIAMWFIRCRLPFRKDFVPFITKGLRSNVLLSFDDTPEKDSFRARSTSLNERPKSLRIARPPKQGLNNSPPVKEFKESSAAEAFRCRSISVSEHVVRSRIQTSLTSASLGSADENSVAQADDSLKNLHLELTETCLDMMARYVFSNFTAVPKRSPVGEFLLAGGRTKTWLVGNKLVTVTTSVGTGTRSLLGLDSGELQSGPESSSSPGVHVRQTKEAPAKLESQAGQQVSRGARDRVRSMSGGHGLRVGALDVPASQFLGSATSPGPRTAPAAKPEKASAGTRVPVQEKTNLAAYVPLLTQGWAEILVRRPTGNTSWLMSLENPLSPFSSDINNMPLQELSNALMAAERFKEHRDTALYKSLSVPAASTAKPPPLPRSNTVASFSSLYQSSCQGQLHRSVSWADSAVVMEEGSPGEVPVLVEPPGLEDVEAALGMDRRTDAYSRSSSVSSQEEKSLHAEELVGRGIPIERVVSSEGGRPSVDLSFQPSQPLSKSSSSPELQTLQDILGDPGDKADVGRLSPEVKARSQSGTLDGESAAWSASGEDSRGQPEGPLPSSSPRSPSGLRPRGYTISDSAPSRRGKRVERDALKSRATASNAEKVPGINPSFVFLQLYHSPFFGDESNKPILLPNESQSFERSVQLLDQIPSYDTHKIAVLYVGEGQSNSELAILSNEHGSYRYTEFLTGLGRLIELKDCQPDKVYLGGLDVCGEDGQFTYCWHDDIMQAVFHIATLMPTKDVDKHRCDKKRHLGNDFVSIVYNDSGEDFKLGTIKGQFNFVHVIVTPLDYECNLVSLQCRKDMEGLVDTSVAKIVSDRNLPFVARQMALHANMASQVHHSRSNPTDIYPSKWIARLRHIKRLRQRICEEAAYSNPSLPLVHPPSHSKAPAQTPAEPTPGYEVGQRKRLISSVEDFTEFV

With G386D as the variant, how does the “effect of a mutation on the interaction” value read?
The value was “with no effect”.

Variants of: B1
Conditions: with tshr_human TSHR

With G386D as the variant, how does the “effect of a mutation on the interaction” value read?
Its value is “with no effect”.

Variants of: B1
Conditions: with vhl_human VHL

How did the “effect of a mutation on the interaction” value turn out when G386D was run?
Its value is “with no effect”.

Variants of: B1
Conditions: with wt1_human WT1, P19544

For G386D, which “effect of a mutation on the interaction” value is on record?
The value was “with no effect”.

Variants of: B1
Conditions: with wwtr1_human WWTR1, Q9GZV5
wwtr1_human WWTR1, Q9GZV5, sequence (Q9GZV5 whole entry): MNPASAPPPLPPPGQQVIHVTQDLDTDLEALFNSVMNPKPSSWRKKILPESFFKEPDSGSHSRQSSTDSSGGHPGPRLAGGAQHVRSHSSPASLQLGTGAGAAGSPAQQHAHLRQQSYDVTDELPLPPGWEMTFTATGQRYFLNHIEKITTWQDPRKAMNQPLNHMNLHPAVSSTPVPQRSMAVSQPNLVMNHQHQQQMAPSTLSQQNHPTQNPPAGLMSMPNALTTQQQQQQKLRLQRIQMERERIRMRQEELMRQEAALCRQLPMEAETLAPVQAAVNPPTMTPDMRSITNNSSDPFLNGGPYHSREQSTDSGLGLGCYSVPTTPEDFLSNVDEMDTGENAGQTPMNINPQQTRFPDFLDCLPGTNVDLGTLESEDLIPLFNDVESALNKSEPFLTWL

How did the “effect of a mutation on the interaction” value turn out when G386D was run?
Its value is “with no effect”.

Variants of: B1
Conditions: with xirp2_human XIRP2, A4UGR9

With G386D as the variant, how does the “effect of a mutation on the interaction” value read?
Its value is “with no effect”.

Variants of: B1
Conditions: with xpo1_human XPO1, O14980

With G386D as the variant, how does the “effect of a mutation on the interaction” value read?
Its value is “with no effect”.

Variants of: B1
Conditions: with 1433e_human YWHAE

With G386D as the variant, how does the “effect of a mutation on the interaction” value read?
The value was “with no effect”.

Variants of: B1
Conditions: with 1433z_human YWHAZ

With G386D as the variant, how does the “effect of a mutation on the interaction” value read?
The value was “with no effect”.

Variants of: B1
Conditions: with arc1a_human ARPC1A

How did the “effect of a mutation on the interaction” value turn out when G386D was run?
Its value is “increasing interaction strength”.

Variants of: B1
Conditions: with axin2_human AXIN2, Q9Y2T1

For G386D, which “effect of a mutation on the interaction” value is on record?
Its value is “increasing interaction strength”.

Variants of: B1
Conditions: with btg1_human BTG1, P62324
btg1_human BTG1, P62324, sequence (P62324 whole entry): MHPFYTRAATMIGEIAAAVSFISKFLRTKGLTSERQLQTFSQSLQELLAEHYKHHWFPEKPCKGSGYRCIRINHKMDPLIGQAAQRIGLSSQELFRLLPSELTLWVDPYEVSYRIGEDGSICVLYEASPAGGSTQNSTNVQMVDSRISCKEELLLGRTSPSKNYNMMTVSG

For G386D, which “effect of a mutation on the interaction” value is on record?
The value was “increasing interaction strength”.

Variants of: B1
Conditions: with erbb3_human ERBB3, P21860

G386D was tested. Which “effect of a mutation on the interaction” value did it give?
Its value is “increasing interaction strength”.

Variants of: B1
Conditions: with gna13_human GNA13, Q14344

Which “effect of a mutation on the interaction” value does the source give for G386D here?
Its value is “increasing interaction strength”.

Variants of: B1
Conditions: with gsk3b_human GSK3B

G386D was tested. Which “effect of a mutation on the interaction” value did it give?
Its value is “increasing interaction strength”.

Variants of: B1
Conditions: with hdac1_human HDAC1, Q13547

How did the “effect of a mutation on the interaction” value turn out when G386D was run?
The value was “increasing interaction strength”.

Variants of: B1
Conditions: with hnf1a_human HNF1A

For G386D, which “effect of a mutation on the interaction” value is on record?
The value was “increasing interaction strength”.

Variants of: B1
Conditions: with notc2_human NOTCH2, Q04721

With G386D as the variant, how does the “effect of a mutation on the interaction” value read?
Its value is “causing an interaction”.

Variants of: B1
Conditions: with ntrk2_human NTRK2, Q16620

With G386D as the variant, how does the “effect of a mutation on the interaction” value read?
Its value is “causing an interaction”.

Variants of: B1
Conditions: with dpod1_human POLD1, P28340

With G386D as the variant, how does the “effect of a mutation on the interaction” value read?
Its value is “increasing interaction strength”.

Variants of: B1
Conditions: with socs1_human SOCS1, O15524
Remark: another data set of the same source

Which “effect of a mutation on the interaction” value does the source give for G386D here?
The value was “increasing interaction strength”.

— IntAct's records for PubMed 35512704
